Data taken from publication doi:10.1101/2021.04.05.438428.

Target: microtubule (MT) of HeLa cells (human (endogenous in HeLa)) (UniProt P68363)
Assay: single-molecule live-cell imaging

Sequence of UniProt P68363 (P68363 whole entry): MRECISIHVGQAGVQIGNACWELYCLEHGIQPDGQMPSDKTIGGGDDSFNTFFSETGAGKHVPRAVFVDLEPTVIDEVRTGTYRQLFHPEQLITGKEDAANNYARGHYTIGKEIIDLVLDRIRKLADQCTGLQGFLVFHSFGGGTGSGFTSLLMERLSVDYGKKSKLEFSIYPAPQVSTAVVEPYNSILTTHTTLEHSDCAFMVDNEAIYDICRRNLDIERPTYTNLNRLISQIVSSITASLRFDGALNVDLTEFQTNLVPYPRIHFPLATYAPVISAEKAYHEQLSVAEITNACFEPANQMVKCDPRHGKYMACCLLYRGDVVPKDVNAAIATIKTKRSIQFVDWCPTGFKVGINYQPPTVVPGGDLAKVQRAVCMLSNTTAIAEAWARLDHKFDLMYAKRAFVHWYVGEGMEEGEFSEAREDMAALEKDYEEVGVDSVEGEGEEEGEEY

koff: 1.7 s⁻¹ | mean residence time: 0.55 s
Substance: mouse dynein heavy chain (DYNC1H1) tagged with GFP (from UniProt Q9JHU4 1-4644) (natural protein)
